This data set concerns the molecule itself. Kind of data set: cryo-EM structure; ~1.4 µM IR-ECD with ~40 µM insulin (28x molar excess), ~30 min at 4°C, HBS; no symmetry imposed; saturated state, 4.3 Å.

B1: human insulin receptor ectodomain protomer IRαβ0 (domain or fragment)
chain 1: HLYPGEVCPGMDIRNNLTRLHELENCSVIEGHLQILLMFKTRPEDFRDLSFPKLIMITDYLLLFRVYGLESLKDLFPNLTVIRGSRLFFNYALVIFEMVHLKELGLYNLMNITRGSVRIEKNNELCYLATIDWSRILDSVEDNYIVLNKDDNEECGDICPGTAKGKTNCPATVINGQFVERCWTHSHCQKVCPTICKSHGCTAEGLCCHSECLGNCSQPDDPTKCVACRNFYLDGRCVETCPPPYYHFQDWRCVNFSFCQDLHHKCKNSRRQGCHQYVIHNNKCIPECPSGYTMNSSNLLCTPCLGPCPKVCHLLEGEKTIDSVTSAQELRGCTVINGSLIINIRGGNNLAAELEANLGLIEEISGYLKIRRSYALVSLSFFRKLRLIRGETLEIGNYSFYALDNQNLRQLWDWSKHNLTITQGKLFFHYNPKLCLSEIHKMEEVSGTKGRQERNDIALKTNGDQASCENELLKFSYIRTSFDKILLRWEPYWPPDFRDLLGFMLFYKEAPYQNVTEFDGQDACGSNSWTVVDIDPPLRSNDPKSQNHPGWLMRGLKPWTQYAIFVKTLVTFSDERRTYGAKSDIIYVQTDATNPSVPLDPISVSNSSSQIILKWKPPSDPNGNITHYLVFWERQAEDSELFELDYCLKGLKLPSRTWSPPFESEDSQKHNQSEYEDSAGECCSCPKTDSQILKELEESSFRKTFEDYLHNVVFVPRPSRKRR
chain 2: SLGDVGNVTVAVPTVAAFPNTSSTSVPTSPEEHRPFEKVVNKESLVISGLRHFTGYRIELQACNQDTPEERCSVAAYVSARTMPEAKADDIVGPVTHEIFENNVVHLMWQEPKEPNGLIVLYEVSYRRYGDEELHLCVSRKHFALERGCRLRGLSPGNYSVRIRATSLAGNGSWTEPTYFYVTDYLDVPSNIAK
modifications: glycosylated | glycosylated
Take B1: the “stoichiometry N” value came out at 2.
